Test results as given in US20210284709A1 (JUNO THERAPEUTICS, published 2021).
Substitutions are numbered along the chain they refer to.

B1: TCR 32 (codon-optimized, cysteine-modified) (TCR, V domains shown)
V domain 1: TQLLEQSPQFLSIQEGENLTVYCNSSSVFSSLQWYRQEPGEGPVLLVTVVTGGEVKKLKRLTFQFGDARKDSSLHITAAQPGDTGLYLCAGGSNYKLTFGKGTLLTVNP
V domain 2: DSGVTQTPKHLITATGQRVTLRCSPRSGDLSVYWYQQSLDQGLQFLIQYYNGEERAKGNILERFSAQQFPDLHSELNLSSLELGDSALYFCASSVGGDHSDEQFFGPGTRLTVLE
B2: TCR 30 (codon-optimized, cysteine-modified) (TCR, V domains shown)
V domain 1: DAKTTQPPSMDCAEGRAANLPCNHSTISGNEYVYWYRQIHSQGPQYIIHGLKNNETNEMASLIITEDRKSSTLILPHATLRDTAVYYCIVRGTSVLQGNEKLTFGTGTRLTIIP
V domain 2: EPEVTQTPSHQVTQMGQEVILRCVPISNHLYFYWYRQILGQKVEFLVSFYNNEISEKSEIFDDQFSVERPDGSNFTLKIRSTKLEDSAMYFCASSRQPSSGNTIYFGEGSWLTVVE
B3: TCR 16 (codon-optimized, cysteine-modified) (TCR, V domains shown)
V domain 1: KQEVTQIPAALSVPEGENLVLNCSFTDSAIYNLQWFRQDPGKGLTSLLLIQSSQREQTSGRLNASLDKSSGRSTLYIAASQPGDSATYLCAVRPANNNDMRFGAGTRLTVKP
V domain 2: DVKVTQSSRYLVKRTGEKVFLECVQDMDHENMFWYRQDPGLGLRLIYFSYDVKMKEKGDIPEGYSVSREKKERFSLILESASTNQTSMYLCASSLWGRSNQPQHFGDGTRLSILE
B4: TCR 19 (codon-optimized, cysteine-modified) (TCR, V domains shown)
V domain 1: AQKITQTQPGMFVQEKEAVTLDCTYDTSDQSYGLFWYKQPSSGEMIFLIYQGSYDEQNATEGRYSLNFQKARKSANLVISASQLGDSAMYFCAMRENTGTASKLTFGTGTRLQVTL
V domain 2: B3 V domain 2 with L95S, R98Q, N100T, Q101G, P102E, H104Y, D107P, S112T, I113V, L114T
B5: TCR 25 (codon-optimized, cysteine-modified) (TCR, V domains shown)
V domain 1: AQKITQTQPGMFVQEKEAVTLDCTYDTSDQSYGLFWYKQPSSGEMIFLIYQGSYDEQNATEGRYSLNFQKARKSANLVISASQLGDSAMYFCAMREGSLTGGGNKLTFGTGTQLKVEL
V domain 2: B3 V domain 2 with R98Q
B6: TCR 29 (codon-optimized, cysteine-modified) (TCR, V domains shown)
V domain 1: B4 V domain 1 with E96L
V domain 2: DGGITQSPKYLFRKEGQNVTLSCEQNLNHDAMYWYRQDPGQGLRLIYYSQIVNDFQKGDIAEGYSVSREKKESFPLTVTSAQKNPTAFYLCASSPWGRATNEQFFGPGTRLTVLE
B7: TCR 15 (codon-optimized, cysteine-modified) (TCR, V domains shown)
V domain 1: AQKITQTQPGMFVQEKEAVTLDCTYDTSDQSYGLFWYKQPSSGEMIFLIYQGSYDEQNATEGRYSLNFQKARKSANLVISASQLGDSAMYFCAMKPGGYNKLIFGAGTRLAVHP
V domain 2: DAGVIQSPRHEVTEMGQEVTLRCKPISGHNSLFWYRQTMMRGLELLIYFNNNVPIDDSGMPEDRFSAKMPNASFSTLKIQPSEPRDSAVYFCASSLVGRSRTEQYFGPGTRLTVTE
B8: TCR 26 (codon-optimized, cysteine-modified) (TCR, V domains shown)
V domain 1: B7 V domain 1 with K95R, P96D, G97A, G98R, Y99N, K101D, L102M, I103R, A111T, H113K
V domain 2: NAGVTQTPKFRVLKTGQSMTLLCAQDMNHEYMYWYRQDPGMGLRLIHYSVGEGTTAKGEVPDGYNVSRLKKQNFLLGLESAAPSQTSVYFCASSYYASGRNYEQYFGPGTRLTVTE
B9: TCR 20 (codon-optimized, cysteine-modified) (TCR, V domains shown)
V domain 1: AQKVTQAQTEISVVEKEDVTLDCVYETRDTTYYLFWYKQPPSGELVFLIRRNSFDEQNEISGRYSWNFQKSTSSFNFTITASQVVDSAVYFCALWTGANNLFFGTGTRLTVIP
V domain 2: GAVVSQHPSRVICKSGTSVKIECRSLDFQATTMFWYRQFPKQSLMLMATSNEGSKATYEQGVEKDKFLINHASLTLSTLTVTSAHPEDSSFYICSASSLARRSYEQYFGPGTRLTVTE
B10: TCR 28 (codon-optimized, cysteine-modified) (TCR, V domains shown)
V domain 1: RKEVEQDPGPFNVPEGATVAFNCTYSNSASQSFFWYRQDCRKEPKLLMSVYSSGNEDGRFTAQLNRASQYISLLIRDSKLSDSATYLCVVRGGGTSYGKLTFGQGTILTVHP
V domain 2: DVKVTQSSRYLVKRTGEKVFLECVQDMDHENMFWYRQDPGLGLRLIYFSYDVKMKEKGDIPEGYSVSREKKERFSLILESASTNQTSMYLCASSLWGRSSGNTIYFGEGSWLTVVE
B11: modified version of TCR 14 (TCR)
TCR alpha: ILNVEQSPQSLHVQEGDSTNFTCSFPSSNFYALHWYRWETAKSPEALFVMTLNGDEKKKGRISATLNTKEGYSYLYIKGSQPEDSATYLCASQTGANNLFFGTGTRLTVIPYIQNPDPAVYQLRDSKSSDKSVCLFTDFDSQTNVSQSKDSDVYITDKCVLDMRSMDFKSNSAVAWSNKSDFACANAFNNSIIPEDTFFPSPESSCDVKLVEKSFETDTNLNFQNLSVIGFRILLLKVAGFNLLMTLRLWSS
TCR beta: DVKVTQSSRYLVKRTGEKVFLECVQDMDHENMFWYRQDPGLGLRLIYFSYDVKMKEKGDIPEGYSVSREKKERFSLILESASTNQTSMYLCASTFWGQRRTEAFFGQGTRLTVVEDLNKVFPPEVAVFEPSEAEISHTQKATLVCLATGFFPDHVELSWWVNGKEVHSGVCTDPQPLKEQPALNDSRYCLSSRLRVSATFWQNPRNHFRCQVQFYGLSENDEWTQDRAKPVTQIVSAEAWGRADCGFTSVSYQQGVLSATILYEILLGKATLYAVLVSALVLMAMVKRKDF
B12: TCR 22 (codon-optimized, cysteine-modified) (TCR, V domains shown)
V domain 1: GQNIDQPTEMTATEGAIVQINCTYQTSGFNGLFWYQQHAGEAPTFLSYNVLDGLEEKGRFSSFLSRSKGYSYLLLKELQMKDSASYLCAVRARMDSNYQLIWGAGTKLIIKP
V domain 2: DAGVTQSPTHLIKTRGQHVTLRCSPISGHKSVSWYQQVLGQGPQFIFQYYEKEERGRGNFPDRFSARQFPNYSSELNVNALLLGDSALYLCASSRTENYGYTFGSGTRLTVVE
B13: modified version of TCR 13 (TCR)
TCR alpha: AQSVTQLDSHVSVSEGTPVLLRCNYSSSYSPSLFWYVQHPNKGLQLLLKYTSAATLVKGINGFEAEFKKSETSFHLTKPSAHMSDAAEYFCVVRGGKLIFGQGTELSVKPNIQNPDPAVYQLRDSKSSDKSVCLFTDFDSQTNVSQSKDSDVYITDKCVLDMRSMDFKSNSAVAWSNKSDFACANAFNNSIIPEDTFFPSPESSCDVKLVEKSFETDTNLNFQNLSVIGFRILLLKVAGFNLLMTLRLWSS
TCR beta: GAGVSQSPRYKVAKRGQDVALRCDPISGHVSLFWYQQALGQGPEFLTYFQNEAQLDKSGLPSDRFFAERPEGSVSTLKIQRTQQEDSAVYLCASSPTGTERELFFGEGSRLTVLEDLKNVFPPEVAVFEPSEAEISHTQKATLVCLATGFYPDHVELSWWVNGKEVHSGVCTDPQPLKEQPALNDSRYCLSSRLRVSATFWQNPRNHFRCQVQFYGLSENDEWTQDRAKPVTQIVSAEAWGRADCGFTSESYQQGVLSATILYEILLGKATLYAVLVSALVLMAMVKRKDSRG

molecular target: T1, HLA-A2/E7(11-19) tetramer (human; HPV 16); assay: flow cytometry, tetramer + anti-CD8; transfected mix of CD8- and CD8+ Jurkat-derived cells;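 note: cells transiently transfected with TCR-encoding plasmids, analysed 48 h afterwards by co-staining with HLA-A*02:01 peptide tetramer and anti-CD8 antibody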
T1 construct: also called E7(11-19) peptide-MHC tetramer; E7 tet
Method: (§1) For transfection, the CD4+ and CD4+/CD8+ cell mixtures were transiently transfected with TCR-encoding plasmids and 48 hours after transfection, cells were assessed by flow cytometry for (1) binding of the target peptide in the context of an MHC molecule (HLA:A02:01) by staining with an E6(29-38) peptide- or an E7(11-19) peptide-MHC tetramer reagent, and/or (2) CD8+ independent binding of the target by co-staining the tetramer-labeled cells with an anti-CD8 antibody.

| Binder | % cells E7 tet+/CD8+ quadrant [%] | % cells E7 tet+/CD8- quadrant [%] |
| --- | --- | --- |
| B1 | 25.3 | 33.5 |

molecular target: T2, HLA-A2/E6(29-38) tetramer (human; HPV 16); assay: as above
T2 construct: also called E6(29-38) peptide-MHC tetramer; E6 tet
Method: as §1

| Binder | % cells E6 tet+/CD8+ quadrant [%] | % cells E6 tet+/CD8- quadrant [%] |
| --- | --- | --- |
| B2 | 31 | 0.74 |
| B3 | 35.6 | 28.2 |
| B4 | 35.5 | 20.8 |
| B5 | 34 | 14.7 |
| B6 | 35.6 | 44.5 |
| B7 | 21.4 | 40.2 |
| B8 | 42.3 | 47.4 |
| B9 | 38.2 | 34.1 |
| B10 | 13.1 | 0.15 |

molecular target: T2, HLA-A2/E6(29-38) tetramer; assay: flow cytometry, tetramer + anti-CD8; transfected Jurkat-derived cells, CD8+ cells
Method: as §1

| Binder | % cells E6 tet+/CD8+ quadrant [%] | % cells E6 tet+/CD8- quadrant [%] |
| --- | --- | --- |
| B11 | 38.4 | 0.04 |
| B12 | 51.2 | 0.14 |
| B13 | 38.6 | 0.064 |
